# Data as given in the RNAGym collection of RNA variant scans (doi:10.1073/pnas.2313332121).
# B1: TPR t1 (parent)
# chain: GACCAAUCUGCCCUCAGAGCUCGAGAACAUCUUCGGAUGCAGAGGAGGCAGGCUUCGGUGGCGCGAUAGCGCCAACGUCCUCAACCUCCAAUGCAUCCCACCACAUGAUGAUGCCUGAAGAGCCUUGGUUUUUUG
# Variants of: B1
# Assay: polymerase ribozyme fitness, log enrichment relative to wild type (log ratio); higher = more active; in vitro selection for triplet polymerase activity
# How it was run: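 A single round of triplicate in vitro selection, including frozen incubation at −7 °C, was applied to PCR-built, transcribed mutant libraries of each subunit of a heterodimeric triplet polymerase ribozyme. Illumina sequencing of input and output libraries retained genotypes with ≥10 input reads and ≥1 read per output. Fitness is the base-2 logarithm of genotype enrichment divided by wild-type enrichment, from inverse-variance-weighted replicate averages.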
row,Variant,polymerase ribozyme fitness (log ratio)
1,GACCAAUCUGCCCUCAGAGAUCGAGAACAUCUUCGGAUGCUGAGGAGGCAGGCUUCGGUGGCGCGAUAGCACCAACGUCCUCAACCUCCAAUGCAUCCCACCACAUGAUGAUGCCUGAAGAGCCUUGGUUUUUUG,-4.76
2,GACCAAUCUGCCCUCAGAUCUCGAGAACAUCUUCGGAUGCAGAGGAGGCAGGCUUCGGUGGCGCGAUAGCGCCAACGUCCUCAACCUCCAAUUCAUCCCACCACAUGAUGAUGCCUGAAGAGCCUUGGUUUUUUG,-4.25
3,GACCAAUCUGCCCUCAGAGAUCGAGAACAUCUUCGGAUGCAGAGGAGGCAGGCUUCGGUGGCGCGAUAGCGCCGACGUCCUCAACCUCCAAUGCAUCCCACCACAUGAUGAUGCCUGAAGAGCCUUGGUUUUUUG,-3.04
4,GACCAAUCUGCCCUCAGAGAUCGAGAAUAUCUUCGGAUGCAGAGGCGGCAGGCUUCGGUGGCGCGAUAGCGCCAACGUCCUCAACCUCCAAUGCAUCCCACCACAUGAUGAUUCAUGAAGAGCCUUGGUUUUUUG,-4.17
5,GACCAAUCUGCCCUCAGAGAUCGAGAACAUCUUCGGAUGCAGUGGAGGCAGGCUUCGGUGGCGCGAUAGCGCCAACGUCCUCAACCUCCAAUGCAUCCCACCACAUGAUGAUCCCUGAAGAGCCUUGGUUUUUUG,-5.17
6,GACCAAUCUGCCCUCAGAGAUCGAGAACAUCUUCGGAUGCAGAGGAGGCUGGCUUCGGUGGCGCGAUAGCGCCAACGUCCUCAACCUCCAAUGCAUCCCACCACAUGAUGAUGCCUGAAGAGCCUUGGUUUUUUG,-4.4
7,GACCAAUCUGCCCUCAGAGAUCGAGAACAUCUUCGGAUGCAGAGGAGGCAGGCUUCGGUGGCGCGAUGGCGCCAACGCCCUCAACCUCCAAUGCAUCCCACCACAUGAUGAUGCCUGAAGAGUCUUGGUUUUUUG,-4.98
8,GACCAAUCUGCCCUCAGAGAUCGAGAACAUCUUCGGAUGCAGAGGAGGCAGGCUUCGGUGGCGCGAUAGCGCCAACGUCCUCAACCUCCUAUGCAUCCCACCACAUGAUGAUGCCUGAAGAGCCUUGGUUUUUUG,-3.71
9,GACCAAUCUGCCCUCAGAGAUCGAGGACAUCUACGGAUGCAGAGGAGGCAGGCUUCGGUGGCGCGAUAGCGCCAACGUCCUCAACCUCCAAUGCAUCCCACCACAUGAUGAUGCCUGAAGAGCCUUGGUUUUUUG,-5.24
10,GACCAAUCUGCCCUCAGAGAUCGAGAAAAUCUUCGGAUGCAGAGUAGGCAGGCUUCGGUGGCGCGAUAGCGCCAACGUCCUCAUCCUCCAAUGCAUCCCACCAAAUUAUGAUGCCUGAAGAGCUUUGGUUUUUUG,-5.96
11,GACCAAUCUGCCCUCAGAGAUCGAGAACAUCUUCGGAUGCCGAGGAGGCAGGCUUCGGUGGCGCGAUAGCACCAACGUCCUAAACCUCCAAUGCAUCCCACCACAUGAUGAUGCCUGAAGAGCCUUGGUUUUUUG,-5.71
12,GACCAAUCUGCCCUCAGAGAUGGAGAACAUCUUCGGAUGCAGAGGAGGCAGGCUUCGGUGGCGCGAUAGCACCAACGUCCUCAACCUCCAAUGCAUCCCACCACAUGAUGAUGCCUGAAGGGCCUUGGUUUUUUG,-3.88
13,GACCAAUCUGCCCUCAGAGAUUGAGAACAUCUUCGGAUGCAUAGGAGGCAGGCUUCGGUGGCGCGAUAGCGCCAACGUCCUCAACCUCCAAUGCAUCCCACCACAUGAUGAUUCCUGAAGAGCCUUGGUUUAUUG,-3.71
14,GACCAAUCUGCCCUCAGAGAUCGAGAACAUCUUCGGAUGCAGAGGCGGCAGGCUUCGGUGGCGCGAUAGCGCCGACGUCCUCAACCUCCAAUCCAUCCCACCACAUGAUGAUGCCUGGAGAGCCUUGGUUUUUUG,-5.42
15,GACCAAUCUGCCCUCAGAUCUCGAGAACAUCUUCGGAUGCAGAGGAGGCAGGCUUCGGUGGCGCGAUAGCGCCAACGUCCUCAACCUCCAAUGCAUCCCACCACAUGAUGAUGCCUGAAGAGCCUUGGGUUUUUG,-4.04
16,GACCAAUCUGCCCUCAGAGAUUGAGAACAUCUUCGGAUGCAGAGGAGGCAGGCUUCGGGGGCGCGAUAGCGCCAACGUCCUAAACCUCCAAUGCAUCCCACCACAUGAUGUUGCCUGAAGAGCCUUGGUUUUUUG,-5.49
17,GACCAAUCUGCCCUCAGAGAUCGAGAACAUCUUCGGAUGCAGAGGAGGCGGGCUUCGGUGGCGCGAUAGCGCCUACGUCCUCAACCUCCAAUGCAUCCCACCACAUGAUGAUGCCUGAAGAGCCUUGGUUUUUUG,-3.16
18,GACCAAUCUGCCCUCAGAGAUCGAGAACAUCUUCGGCUGCAGAGGACGCAGGCUUCGGUGGCGCGAUAGCGCCAACGUCCUCUACCUCCAAUGCAUCCCACCACAUGAUGAUGCCUGAAGAGCCUUGGUUUUGUG,-4.54
19,GACCAAUCUGCCCUCAGAGAUCGAGAACAUCUUCGGUUGCAGAGGAGGCAGGCAUCGGUGGCGCGAUAGCGCCAACGUCCUCAACCUCCAAUGCAUCCCACCACAUGAUGAUGCCUGAAGAGCCUUGGUUUUUUG,-3.54
20,GACCAAUCUGCCCUCAGAGAUCGAGACCAUCUUCGGAUGCAGAGGAGGCAGGCUUCGGUGGCGCGAUAGCGCCAACGUCCUCAACCUCCAAUGCAUCCCACCACAUGAUGAUGCCUGAAGAGCCUUGGUUUUUUG,-4.9
21,GACCAAUCUGCCCUCAGAUCUCGAGAACAUCUUCGGAUGCAGAGGAGGCAGGCUGCGGUGGCGCGAUAGCGCCAACGUCCUCAACCUCCAAUGCAUCCCACCACAUGAUGAUGACUGAAGAGCCUUGGUUAUUUG,2.05

row,Variant,polymerase ribozyme fitness (log ratio)
1,GACCAAUCUGCCCUCAGAGAUCGAGAACAUCUUCGGAUGCAGAGGAGGCAGGCUUCGGUGGCGCGAUAGCGCCAACGUCCUCAACCUCCAAUGCAUCCCACCACAUGAUGAUGCCUGAAGUGCCUUGGUUUUUUG,-0.837
2,GACCAAUCUGCCCUCAGAGAUCGAGAGCAUCUUCGGAUGGAGAGGAGGCAGGCUCCGGUGGCGCGAUAGCCCCAACGUCCUCAACCUCCAAUGCAUCCCACCACAUGAUGAUACCUGAAGAGCCUUGGUUUUUUG,-3.84
3,GACCAAUCUGCCCUCAGAUCUCGAGAACAUCUUCGGAUGCAGAGGAGGCAGGCUUCGGUGGCGCGAUAGCGCCAACGUCCUCAACCUCCAAUGCAUCCCACCACAUGAUGAUGCCUGAAGAGCCUUGGUGUUUUG,-3.14
4,GACCAAUCUGCCCUCAGAGAUCGAGAACAUCUUCGGAUGCAGUGGAGGCAGGCUUCGGUGGCGCGAUAGCGCCAACGUCCUCAACCUCCAAUGCAUCCCACCACAUGAUGAUGCCUGAAGAGCCUUGGUUUUUUG,-3.83
5,GACCAAUCUGCCCUCAGAGAUCGAGGACAUCUUCGGAUGCAGAGGAGGCAGGCUUCGGUGGCUCGAUAGCGCCAACGUCCUCAACCUCCAAUGCAUCCAACCAAAUGAUGAUGCCUGAAGAGCCUUGGUUUUUUG,-6.09
6,GACCAAUCUGCCCUCAGAUCUCGAGAACAUCUUCGGAUGCAGAGGAGGCAGGCUGCGGUGGCGCGAUAGCGCCAACGUCCUCAACCUCCAAUGCAUCCCACCACAUGAUGAUGCCUGAAGAGACUUGGUUUUUUG,-4.18
7,GACCAAUCUGCCCUCAGAUCUCGAGAACAUCUUCGGAUGCAGAGGAGGCAGGCUUCGGGGGCGCGAUAGCGCCAACGUCCUCAACCUCCAAUGCAUCCCACCACAGGAUGAAGCCUGAAGAGCCUUGGUUUUUUG,-2.43
8,GACCAAUCUGCCCUCAGAGAUCGAGAACAUCUUCGGAUGCAGAGGGGGAAGGCUUCGGUUGCGCGAUAGCGCCAACGUCCGCAACCUCCACUGCAUCCCACCACAUGAUGAUGCCUGAAGAGCCUUGGUUUUUUG,-5.46
9,GACCAAUCUGCCCUCAGAGAUCGAGAACAUCUUCGGUUGCAGAGGAGGCAGGCUUCGGUGACGCGAUAGCGCCAACGUCCUCAACCUCCAAUGCAUCCCACCACAUGAUGAUGCCUGAAGCACCUUGGUUUUUUG,-1.31
10,GACCAAUCUGCCCUCAGAGAUUGAGAACAUCUUCGGAUGCAGAGGAGGAAGGCUUCGGUGGCGCGAUAGCGCCAACGUCCUCAACCUCCAAAGCAUCCCACCACAUGAUGAUGCUUGAAGAGCCUUGGUUUUUUG,-7.22
11,GACCAAUCUGCCCUCAGAGAUCGAGAACAUCUUCGGAUGCAGAGGUGGCAGGCUUCGGUGGCGCGAUAGCGUCAACGUCCUCAACCUCCAAUGCAUCCCACCACAUGAUGAUGCCUGAAGAGCCUUGGAUUUUUG,-6.73
12,GACCAAUCUGCCCUCAGAGAUCGAGAAAAUCUUCGAAUGCAGAGGAGGCAGGCUUCGGUGGCGCGAUAGCGGCAACGUCCUCAACCUCCCAUGCAUCCCACCACAUGAUUAUGCCUGAAGAGCCUUGGUUUUUUG,-6.43
13,GACCAAUCUGCCCUCAGAUCUCGAGAACAUCUUCGGAUGCAGAGGAGGCAGGCUCCGGUGCCGCGAUAGCGCCAACGUCCUCAACCUCCAAUGCAUCCCACCACAUGAUGAUGCCUGAAGAGCCUUGGUUUUUUG,-4.04
14,GACCAAUCUGCCCUCAGAGAUCGAGGACAUCUUCGGAUGCAGAGGAGGCAGGCUUCGGUGGCGCGAUAGCGCCAACGUCCUCAACCUCCAAUGCAUCCCACCACAUGAUUAUGCCUGAAGAGCCUUGGUUUUUUG,-4.8
15,GACCAAUCUGCCCUCAGAGAUCGAGAACAUCUUCGGAUGCAGAGGAGGCAGGCUUCGGUGGCGCGAUAGCGCCAACGUCCUCAACCUCCAAUGCAUCCCACCACAUGAUGGUGCCUGAAGAGCCUUGGUUUUUUG,-3.92
16,GACCAAUCUGCCCUCAGAUCACGAGAACAUCUUCGGAUGCAGAGGAGGAAGGCUUCGGUGGCGCGAUAGCGCCAACGUCCUAAACCUCCAAUGCAUCCCACCACAUGAUGAUCCCUGAAGAGCCUUGGUUUUUUG,-4.41
17,GACCAAUCUGCCCUCAGAGAUCGAGAACAUCUUCGGAUGCAGAGGAGGCUGGCUUCGGUGGCGCGAUAGCGCCAACGUCCUCAACCUCCAAUGCAUCCCACCACAUGAUGAUGCCUGAAAAGCCUUGGUUUUUUG,-3.84
18,GACCAAUCUGCCCUCAGAUCUCGAGAACAUCUUCGGAUGCAGAGGAGGCAGGCUUCGGUGGCGCGAUAGCGCCAACGUCCUCAACCUCCAAUGCAUCCCACCACAUGAUGAUGCCUGAAGAGCCUUGGUUUUUUU,-3.57
19,GACCAAUCUGCCCUCAGAUCUCGAGAACAUCUUCGGAUGCAGAGGAGGCAGGCUUCGGUGGCGCGAUAGCGCCAACGUCCUCAACCUCCAAUGCAUCCCACCACAUGAUUAUGCCUGAAGAGCCUUGGUUUUUUG,-5.11
20,GACCAAUCUGCCCUCAGAUCUCGAGAACAUCUUCGGAUGCAGAGGAGGCAGGCUUCGGUGGCGCGAUAGCUCCAACGUCCUCAUCCUCCAAUGCAUCCCACCACAUGAUGAUGCCUGAAGAGCCUUGGUUUUUUG,-4.08
21,GACCAAUCUGCCCUCAGAGAUCGAGAACAUCUUCGGAUGCUGAGGAGGCAGGCUUCGGUGACGCGAUAGCGCCAACGUCCUCAACCUCCAAUGCAUCCCACAACAUGAUGAUGCCUGAAGAGCCUUGGUUUUUUG,-6.03
